The source of these data is patent US20260144882A1 (BIO THERA SOLUTIONS, published 2026).

As usually defined, the EC50 is the concentration at which the effect is half-maximal. The Kd is a measure of binding affinity in units of concentration. A word on the koff: it is a measure of how fast the partners let go of each other. As usually defined, the kon is the second-order rate constant of association.

“And” between values parts separate entries of the source, which are not always exact repeats. Equal values may be shown once. Read-outs that look alike come from different tables or passages of the source.

Test [1] has as its target T1, human Nectin-4, full length on cells (human, UniProt Q96NY8 32-510).
T1 construct: whole, on cells; T-47D cells positive for Nectin-4 expression; also called Nectin-4 on T-47D cells; CHO-Nectin-4
T1 sequence (looked up): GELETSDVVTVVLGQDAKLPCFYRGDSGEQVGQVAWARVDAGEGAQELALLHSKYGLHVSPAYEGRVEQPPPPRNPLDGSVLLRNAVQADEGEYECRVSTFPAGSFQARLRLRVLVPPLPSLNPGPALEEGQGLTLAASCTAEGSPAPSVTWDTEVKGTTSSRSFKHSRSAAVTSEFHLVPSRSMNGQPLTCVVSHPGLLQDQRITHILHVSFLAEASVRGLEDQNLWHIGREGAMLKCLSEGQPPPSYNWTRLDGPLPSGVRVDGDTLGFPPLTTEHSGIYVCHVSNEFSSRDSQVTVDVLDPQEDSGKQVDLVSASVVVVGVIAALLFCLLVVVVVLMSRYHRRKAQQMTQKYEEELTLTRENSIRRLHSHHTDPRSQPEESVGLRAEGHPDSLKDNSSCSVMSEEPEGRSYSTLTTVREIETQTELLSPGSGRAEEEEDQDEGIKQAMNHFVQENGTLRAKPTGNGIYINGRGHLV
Description: flow cytometry on T-47D cells. As to the method: In this study, the binding activity of different antibodies to T-47D cells positive for Nectin-4 expression was detected by FACS, and the EC₅₀ for the binding of antibodies to the cells was analyzed by a four-parameter method. The procedures are briefly described as follows: T-47D cells (the Cell Bank of Chinese Academy of Sciences, TCHu 87) were trypsinized; the antibodies were serially diluted and co-incubated with T-47D cells at 4° C. for 0.5-1 h, followed by the addition of the secondary PE-labeled anti-human Fc antibody (Invitrogen, 12-4998-82); the signal intensity of red fluorescence was detected on a flow cytometer, and curves were plotted using Graphpad Prism and the EC₅₀ was calculated.

For test [2], the target named is T1, human Nectin-4, full length on cells. Description: flow cytometry, T-47D cells, antibody bound on ice, 0 h at 37 C. As to the method:
(§1) In this assay, the relative amount of antibodies remaining on the cell surface after co-incubation at 37° C. for a certain period of time was detected by FACS to reflect the endocytosis efficiency. The procedures are briefly described as follows: T-47D cells (human ductal breast cancer cells, derived from the Cell Bank of Chinese Academy of Sciences, Cat.No. TCHu 87); the antibodies of interest were adjusted to 10 µg/mL and co-incubated with the cells on ice for 1 h; the cells were washed 3 times with pre-cooled PBS, and then placed at 37° C. and incubated for 0 h, 2 h and 4 h; 0.2% N₃Na was added to stop the endocytosis reaction; the cells were washed with PBS thrice, followed by the addition of the PE-labeled anti-human Fc secondary antibody (Invitrogen 12-4998-82); the cells were incubated at 4° C. for 30 min; the red fluorescence signal was detected on a flow cytometer.

Test [3] deals with T2, human Nectin-4 extracellular antigen hNectin-4-His (human, UniProt Q96NY8 32-349).
T2 construct: C-terminal 8xHis tag included
T2 sequence: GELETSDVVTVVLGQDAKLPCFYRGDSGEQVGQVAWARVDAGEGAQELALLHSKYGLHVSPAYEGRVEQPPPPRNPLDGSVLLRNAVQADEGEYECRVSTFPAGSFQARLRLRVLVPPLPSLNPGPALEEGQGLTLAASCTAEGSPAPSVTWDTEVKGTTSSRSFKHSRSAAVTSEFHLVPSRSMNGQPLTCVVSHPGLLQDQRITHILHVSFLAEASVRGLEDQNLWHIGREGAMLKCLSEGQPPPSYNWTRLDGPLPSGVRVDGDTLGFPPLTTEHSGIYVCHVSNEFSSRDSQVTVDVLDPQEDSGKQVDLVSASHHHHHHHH
Description: SPR (BIAcore T200): antibody captured on a Protein A chip, hNectin-4-His injected at 0-100 nM, 1:1 fit. The sheet prints no unit; M is taken from the column head of Table 12 for the same fits. Table 12 prints 6.03E-09 for ASG-22, so the sheet's number differs from the text. The text has this: (§2) In this study, the affinity of the antibodies for the human Nectin-4 extracellular antigen was detected by surface plasmon resonance (SPR) technique (BIAcore: GE Healthcare, T200).

The target in test [4] is T2, human Nectin-4 extracellular antigen …. Description: ELISA, coated hNectin-4-His. An excerpt:
(§3) The binding activity of the antibodies was detected by ELISA.
In general terms: An ELISA detects its analyte on a solid surface through an enzyme-linked reagent.

For test [5] the target is unchanged. Description: ELISA, coated hNectin-4-His.
Text: as §3
The source holds these as a separate data set.

Test [6] shares this target. The test is described as follows: SPR, antibody on Protein A chip, 1:1 fit.
Text: as §2

Test [7] shares this target. The test is described as follows: SPR, antibody on Protein A chip, hNectin-4-His analyte, 1:1 fit.
Text: as §2
A general note: SPR reads the build-up and loss of mass on a sensor chip optically.

Test [8] shares this target. Description: ELISA, coated hNectin-4-His.
Text: as §3
This is another data set of the same source.

Test [9] concerns the target T1, human Nectin-4, full length on cells. Description: flow cytometry, T-47D cells, antibody bound on ice, 0 h at 37 C. As to the method: as §1
The source holds these as a separate data set. On the technique in general: In flow cytometry, cells or beads pass a laser one at a time.

Test [10] concerns the target T3, monkey cNectin-4 protein (ACRO, NE4-C52H4) (cynomolgus monkey, UniProt A0A2K5WES1 32-349).
T3 construct: bought; construct not described; also called cynomolgus monkey Nectin-4
T3 sequence: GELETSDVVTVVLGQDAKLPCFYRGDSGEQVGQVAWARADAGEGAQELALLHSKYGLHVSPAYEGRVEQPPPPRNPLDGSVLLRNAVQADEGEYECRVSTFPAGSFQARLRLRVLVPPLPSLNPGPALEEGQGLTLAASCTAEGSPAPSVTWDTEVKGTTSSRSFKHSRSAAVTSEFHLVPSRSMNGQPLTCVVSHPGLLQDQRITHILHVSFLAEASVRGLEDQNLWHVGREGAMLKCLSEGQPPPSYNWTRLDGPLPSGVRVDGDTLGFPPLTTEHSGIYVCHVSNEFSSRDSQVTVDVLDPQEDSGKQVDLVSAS
The test is described as follows: ELISA, coated antigen.

For test [11], the target named is T4, mouse mNectin-4 protein (ACRO, NE4-M52H3) (mouse, UniProt Q8R007 31-347).
T4 construct: bought; construct not described; also called mouse Nectin-4
T4 sequence (looked up): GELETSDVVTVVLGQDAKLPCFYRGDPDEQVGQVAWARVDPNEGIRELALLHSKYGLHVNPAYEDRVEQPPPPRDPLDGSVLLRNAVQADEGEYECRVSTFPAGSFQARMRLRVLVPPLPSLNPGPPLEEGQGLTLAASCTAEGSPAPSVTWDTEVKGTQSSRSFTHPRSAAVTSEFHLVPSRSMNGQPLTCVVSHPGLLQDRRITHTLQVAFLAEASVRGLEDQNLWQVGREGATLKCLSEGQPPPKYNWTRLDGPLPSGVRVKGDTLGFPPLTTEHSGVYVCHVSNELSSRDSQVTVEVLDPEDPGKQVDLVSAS
Description: ELISA, coated antigen.

The target of test [12] is T2, human Nectin-4 extracellular antigen …. Description: ELISA, coated antigen.
The target is the same in test [13]. Description: ELISA, coated antigen.
Text: as §3
In this assay, the binding of different antibodies to human Nectin-4 homologous proteins hNectin-1 (ACRO, PV1-H5223), hNectin-2 (ACRO, PV2-H52E2), hNectin-3 (ACRO, PV3-H52E4), and hNectin-4-His was detected by ELISA to determine the specificity of the antibodies. For the methodology and procedures, see Example 4. Antigens of interest ([…]) were immobilized; after blocking, serially diluted antibodies (2-fold serially diluted from […]) were added, and HRP-labeled anti-human-Kappa secondary antibody was added for chromogenic reaction.
The source holds these as a separate data set.

B1: reference antibody ASG-22 (antibody, human IgG1, kappa, V domains shown)
VH: EVQLVESGGGLVQPGGSLRLSCAASGFTFSSYNMNWVRQAPGKGLEWVSYISSSSSTIYYADSVKGRFTISRDNAKNSLSLQMNSLRDEDTAVYYCARAYYYGMDVWGQGTLVTVSS
VL: DIQMTQSPSSVSASVGDRVTITCRASQGISGWLAWYQQKPGKAPKFLIYAASTLQSGVPSRFSGSGSGTDFTLTISSLQPEDFATYYCQQANSFPPTFGGGTKVEIKR
B1: the EC50 in [1] is 0.118 µg/mL and 0.788 nM; in test [4], 0.019 µg/mL; in test [5] it was 0.042 µg/mL and 0.046 µg/mL; in [8], 0.042 µg/mL; in test [10], 0.033 µg/mL; in test [11], 1.23 µg/mL. The concentration giving a half-maximal response (EC50) in [12] came out at 0.035 µg/mL. Also, the “MFI (mean fluorescence intensity) 0 h” value is 107000 MFI in [2] and 58600 MFI in test [9]. Also, the Kd was 6.68 nM in test [3]; 10.1 nM and 10.9 nM in [6]; 6.03 nM in [7]. Also, the koff in test [6] was 0.00581 s⁻¹ and 0.0059 s⁻¹; in test [7], 0.00436 s⁻¹. For the same molecule, the kon in [6] was 577000 M⁻¹ s⁻¹ and 540000 M⁻¹ s⁻¹; in test [7], 723000 M⁻¹ s⁻¹.

B2: antibody 3A10 (antibody, human IgG1, kappa, V domains shown)
VH: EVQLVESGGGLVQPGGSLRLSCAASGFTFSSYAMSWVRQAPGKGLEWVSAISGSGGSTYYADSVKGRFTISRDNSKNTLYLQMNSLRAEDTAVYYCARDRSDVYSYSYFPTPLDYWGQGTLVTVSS
VL: DIQMTQSPSSLSASVGDRVTITCRASQGISSYLAWYQQKPGKAPKLLIYAASSLQSGVPSRFSGSGSGTDFTLTISSLQPEDFATYYCQQHYTTPPTFGQGTKVEIKR
For the molecule B2, the EC50 in [1] was 0.186 µg/mL and 1.24 nM; in test [13], 0.062 µg/mL; in test [8] it was 0.068 µg/mL; in test [10] it was 0.042 µg/mL; in [11], 0.037 µg/mL; in test [12], 0.037 µg/mL. Also, the “MFI (mean fluorescence intensity) 0 h” value in [2] amounted to 105000 MFI. Binding in test [7] was characterised by a dissociation constant (Kd) of 2.1 nM. For the same molecule, the koff in [7] came out at 0.000867 s⁻¹. The kon in test [7] was 413000 M⁻¹ s⁻¹.
